Test results taken from US20080085863A1 (WISCONSIN ALUMNI RESEARCH FOUNDATION, published 2008).

Key:
[1] = biological target: T1, Flag-tagged recombinant bone morphogenetic protein-1 (BMP-1) (UniProt P13497-2 121-730, limits assumed); test: cell-based or functional assay
T1 sequence (looked up): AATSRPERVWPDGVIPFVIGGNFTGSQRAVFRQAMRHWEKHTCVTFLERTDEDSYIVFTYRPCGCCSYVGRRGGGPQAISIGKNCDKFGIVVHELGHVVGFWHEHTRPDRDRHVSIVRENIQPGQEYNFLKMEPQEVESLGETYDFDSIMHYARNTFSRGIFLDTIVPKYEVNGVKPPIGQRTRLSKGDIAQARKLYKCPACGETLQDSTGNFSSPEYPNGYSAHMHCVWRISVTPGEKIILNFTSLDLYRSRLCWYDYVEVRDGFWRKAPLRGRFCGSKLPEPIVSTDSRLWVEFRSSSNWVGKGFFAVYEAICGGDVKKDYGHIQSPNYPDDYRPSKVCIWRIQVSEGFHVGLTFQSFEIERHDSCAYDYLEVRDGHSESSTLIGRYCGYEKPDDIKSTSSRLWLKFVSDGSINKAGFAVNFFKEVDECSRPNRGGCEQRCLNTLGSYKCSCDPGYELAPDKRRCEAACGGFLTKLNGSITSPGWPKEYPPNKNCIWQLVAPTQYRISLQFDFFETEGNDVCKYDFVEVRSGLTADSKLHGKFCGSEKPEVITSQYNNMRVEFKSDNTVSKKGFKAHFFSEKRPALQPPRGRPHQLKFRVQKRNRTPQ

[2] = biological target: T1, Flag-tagged recombinant bone …; test: time course of covalent complex formation of 40 nM 35S-BMP-1 with increasing b-α2M, SDS-PAGE densitometry (method of Enghild et al.)
Experimental: (§1) 40 nM ³⁵S-labeled BMP-1 was incubated with 20, 40, 80, 160, and 240 nM plasma α₂M, or recombinant wild type α₂M or with 5, 10, 20, 40, and 80 nM b-α₂M at 37° C. in 50 mM Tris-HCl, pH 7.5, 100 mM NaCl and 10 mM CaCl₂. Reactions were stopped at 10, 30, 60, 90 and 120 minutes (plasma α₂M and recombinant wild type α₂M), or at 2, 5, 10, 20 and 30 minutes (b-α₂M) by adding. SDS-PAGE sample buffer and boiling 5 minutes at 95° C. Protein samples were separated on 7.5% acrylamide SDS-PAGE gels, which were then treated with EN³HANCE (DuPont) and exposed to film. Percentages of BMP-1 incorporated into high molecular weight complexes were determined by densitometry and kinetic parameters were determined essentially via the method of Enghild J, et al, “Interaction of human rheumatoid synovial collagenase (matrix metalloproteinase 1) and stromelysin (matrix metalloproteinase 3) with human alpha 2-macroglobulin and chicken ovostatin. Binding kinetics and identification of matrix metalloproteinase cleavage sites,” J. Biol. Chem. 264:8779-8785 (1989).
(§2) To obtain a quantitative comparison of the rates of interaction of BMP-1 with the various wild type and mutant forms of α₂M, we employed the methodology of Enghild et al., supra, which involves quantification of covalent proteinase-α₂M complex formation, subsequent to incubation of radiolabeled proteinase with α₂M.

[3] = biological target: T1, Flag-tagged recombinant bone …; test: ratio of second order rate constants, 35S-BMP-1 complex formation
Experimental: as §1, §2

B1: recombinant mutant α2-macroglobulin with the native bait region replaced by sequences flanking the human probiglycan BMP-1 cleavage site (b-α2M) (other)
chain: DYKDDDDKSVSGKPQYMVLVPSLLHTETTEKGCVLLSYLNETVTVSASLESVRGNRSLFTDLEAENDVLHCVAFAVPKSSSNEEVMFLTVQVKGPTQEFKKRTTVMVKNEDSLVFVQTDKSIYKPGQTVKFRVVSMDENFHPLNELIPLVYIQDPKGNRIAQWQSFQLEGGLKQFSFPLSSEPFQGSYKVVVQKKSGGRTEHPFTVEEFVLPKFEVQVTVPKIITILEEEMNVSVCGLYTYGKPVPGHVTVSICRKYSDASDCHGEDSQAFCEKFSGQLNSHGCFYQQVKTKVFQLKRKEYEMKLHTEAQIQEEGTVVELTGRQSSEITRTITKLSFVKVDSHFRQGIPFFGQVRLVDGKGVPIPNKVIFIRGNEANYYSNATTDEHGLVQFSINTTNVMGTSLTVRVNYKDRSPCYGYQWVSEEHEEAHHTAYLVFSPSKSFVHLEPMSHELPCGHTQTVQAHYILNGGTLLGLKKLSFYYLIMAKGGIVRTGTHGLLVKQEDMKGHFSISIPVKSDIAPVARLLIYAVLPTGDVIGDSAKYDVENCLANKVDLSFSPSQSLPASHAHLRVTAAPQSVCALRAVDQSVLLMKPDAELSASSVYNLLPEKDLTGFPGPLNDQDDEDCINRHNVYINGITYTPVSSTNEKDMYSFLEDMGLKAFTNSKIRKPKMCPQFWDFTLDDGPFMMNDEEASGADTSGVLDPDSVTPTYSAMVRKYFPETWIWDLVVVNSAGVAEVGVTVPDTITEWKAGAFCLSEDAGLGISSTASLRAFQPFFVELTMPYSVIRGEAFTLKATVLNYLPKCIRVSVQLEASPAFLAVPVEKEQAPHCICANGRQTVSWAVTPKSLGNVNFTVSAEALESQELCGTEVPSVPEHGRKDTVIKPLLVEPEGLEKETTFNSLLCPSGGEVSEELSLKLPPNVVEESARASVSVLGDILGSAMQNTQNLLQMPYGCGEQNMVLFAPNIYVLDYLNETQQLTPEIKSKAIGYLNTGYQRQLNYKHYDGSYSTFGERYGRNQGNTWLTAFVLKTFAQARAYIFIDEAHITQALIWLSQRQKDNGCFRSSGSLLNNAIKGGVEDEVTLSAYITIALLEIPLTVTHPVVRNALFCLESAWKTAQEGDHGSHVYTKALLAYAFALAGNQDKRKEVLKSLNEEAVKKDNSVHWERPQKPKAPVGHFYEPQAPSAEVEMTSYVLLAYLTAQPAPTSEDLTSATNIVKWITKQQNAQGGFSSTQDTVVALHALSKYGAATFTRTGKAAQVTIQSSGTFSSKFQVDNNNRLLLQQVSLPELPGEYSMKVTGEGCVYLQTSLKYNILPEKEEFPFALGVQTLPQTCDEPKAHTSFQISLSVSYTGSRSASNMAIVDVKMVSGFIPLKPTVKMLERSNHVSRTEVSSNHVLIYLDKVSNQTLSLFFTVLQDVPVRDLKPAIVKVYDYYETDEFAIAEYNAPCSKDLGNA
modifications: One subunit is given; cross-linking showed that the protein forms tetramers. The internal thioester and glycosylation are not carried by the letters.
notes: also called recombinant b-α2M; modified α2M
pCP inhibitory activity, IC50 [1]: 1.88 nM | α2M inhibition of BMP-1 (fold enhancement over the native bait region) [1]: ~25 fold | Ki [2]: 36.4 nM | Relative effectiveness (against recombinant α2M = 1) [3]: 23.7 fold | fold more effective in interacting with BMP-1 than wild type α2M from plasma (second order rate constants) [3]: 15.7 fold
